{"source": "paper PMC6327262", "proteins": {"B1": {"name": "rBGLa (Limosilactobacillus antri DSM 16041) (protein)", "chain": "MVKIDLQFVQGLTLEERAALVSGKDFWFTAKVPGVDRMMMSDGPSGLRKQDIDVAPTDVNNSVDAVCFPSSALTASSFDDQLLFKLGHHLGVAASAEKLGVLLGPGVNIKRSPLAGRNFEYFSEDPLLAGRMGTAYVKGVQEEGVGVSVKHFAANNRENQRFTSSSNIDERALREIYLAQFERIVKEAQPATLMCSYNRLNGTLNSQNQRLLTEILRNEWGFQGLVMSDWGAVADHVAAIKAGLDLEMPGKDQASVDEIVQAVKEGRLQESTLNRSALRVLQMVEKWGKDVSRTESYDKEEQHEFARQVADDSIVLLKNDNQELPLHTGGSLAVIGELAAKPRFEGGGSSHVNAHHLVTPLAAAPTNAKYAVGYSLTETAPNEELTKEAVQLAKQSDQVVFFAGFPERMETEGFDKDSIALPANQNALLREVLKVNPHVTVVLQNGSVVEMPWADGVPAIVETYLAGEAVGEATWDILTGKVNPSGKLSESFPLRLQDNPTYGTFARDHDEEDYHEGIFVGYRYYDLHEMPVRFPFGHGLSYTDFTYSDLTVSEEDNDVKVRFTVTNSGQVAGKEVAQVYVANHVSRVEMPVKELRDFTKLALAPGESKTVTLTLPRRAFSYYNVAQEQWEADNGEYEIMVGSSSRDIRLRTTFTLTIGVNPVGEITGDTYIGDIWNDQDPKVQAALKSSGLYEVLQPMMADKDWVAISANMPLRSLAATGIQEEVRDAFLRALK"}}, "substrate": "O=[N+]([O-])c1ccc(O[C@@H]2O[C@H](CO)[C@@H](O)[C@H](O)[C@H]2O)cc1", "assay": "purified protein", "details": "25 mM sodium phosphate pH 6.0, 45 °C, 1 μg/mL enzyme, 0.1-5.0 mM substrate, no inhibitor"}
{"protein": "B1", "values": [{"measurement": "Km", "result": "1.84 ± 0.07", "unit": "mM"}, {"measurement": "kcat", "result": 407, "unit": "s⁻¹"}, {"measurement": "kcat/Km", "result": 221000, "unit": "M⁻¹ s⁻¹"}]}
